Experimental data: patent US20250235501A1, “Methods and Compositions for Treating or Preventing Neurological Injury or Neurological Disorders” (University of Connecticut, priority 2024, published 2025)

Biological target: T1, NMDARs (Rattus norvegicus, UniProt Q00959+Q00960)
T1 construct: TRPM2 plasmid a gift 17928; 17924; 17925; host or cells: HEK293T
Test: NMDAR currents in HEK-293T cells transfected with NMDARs and TRPM2 (whole cell recording)
Type: cell-based, human
Conditions: 10 μM peptide overnight; 10 μM NMDA, -80 mV
Method: FIGS. 5G and 5H show the effects of TAT-EE3 on NMDAR currents in HEK-293T cells transfected with NMDARs and TRPM2. Transfected cells were treated with 10 μM TAT-EE3 or TAT-SC for overnight. FIG. 5G is representative NMDAR currents elicited at −80 mV by exposing to 10 μM NMDA for about 2 to 4 s.
were ordered from GenScript Biotech, and dissolved in PBS to make a stock concentration at 10 mM. HEK-293T cells or isolated neurons were treated with TAT-SC or TAT-EE3 at a concentration of 10 μM for at least 8 h prior to use. Mice were injected with TAT-SC or TAT-EE3 intraperitoneally (ip) at a dose of 100 nmol/kg.
Whole cell currents were recorded using an Axopatch 200B amplifier. Data were digitized at 10 or 20 kHz and digitally filtered offline at 1 kHz. Patch electrodes were pulled from borosilicate glass and fire-polished to a resistance of ˜3 MΩ when filled with internal solutions. Series resistance (Rs) was compensated up to 90% to reduce series resistance errors to <5 mV. Cells in which Rs was >10 MΩ were discarded (Du, J., Xie, J., and Yue, L. (2009). Modulation of TRPM2 by acidic pH and the underlying mechanisms for pH sensitivity. J Gen Physiol 134, 471-88).
For heterologous expression, transfected HEK-293 cells were identified by GFP fluorescence. […]

T1 sequence (Q00959 23-1464, other chains not shown): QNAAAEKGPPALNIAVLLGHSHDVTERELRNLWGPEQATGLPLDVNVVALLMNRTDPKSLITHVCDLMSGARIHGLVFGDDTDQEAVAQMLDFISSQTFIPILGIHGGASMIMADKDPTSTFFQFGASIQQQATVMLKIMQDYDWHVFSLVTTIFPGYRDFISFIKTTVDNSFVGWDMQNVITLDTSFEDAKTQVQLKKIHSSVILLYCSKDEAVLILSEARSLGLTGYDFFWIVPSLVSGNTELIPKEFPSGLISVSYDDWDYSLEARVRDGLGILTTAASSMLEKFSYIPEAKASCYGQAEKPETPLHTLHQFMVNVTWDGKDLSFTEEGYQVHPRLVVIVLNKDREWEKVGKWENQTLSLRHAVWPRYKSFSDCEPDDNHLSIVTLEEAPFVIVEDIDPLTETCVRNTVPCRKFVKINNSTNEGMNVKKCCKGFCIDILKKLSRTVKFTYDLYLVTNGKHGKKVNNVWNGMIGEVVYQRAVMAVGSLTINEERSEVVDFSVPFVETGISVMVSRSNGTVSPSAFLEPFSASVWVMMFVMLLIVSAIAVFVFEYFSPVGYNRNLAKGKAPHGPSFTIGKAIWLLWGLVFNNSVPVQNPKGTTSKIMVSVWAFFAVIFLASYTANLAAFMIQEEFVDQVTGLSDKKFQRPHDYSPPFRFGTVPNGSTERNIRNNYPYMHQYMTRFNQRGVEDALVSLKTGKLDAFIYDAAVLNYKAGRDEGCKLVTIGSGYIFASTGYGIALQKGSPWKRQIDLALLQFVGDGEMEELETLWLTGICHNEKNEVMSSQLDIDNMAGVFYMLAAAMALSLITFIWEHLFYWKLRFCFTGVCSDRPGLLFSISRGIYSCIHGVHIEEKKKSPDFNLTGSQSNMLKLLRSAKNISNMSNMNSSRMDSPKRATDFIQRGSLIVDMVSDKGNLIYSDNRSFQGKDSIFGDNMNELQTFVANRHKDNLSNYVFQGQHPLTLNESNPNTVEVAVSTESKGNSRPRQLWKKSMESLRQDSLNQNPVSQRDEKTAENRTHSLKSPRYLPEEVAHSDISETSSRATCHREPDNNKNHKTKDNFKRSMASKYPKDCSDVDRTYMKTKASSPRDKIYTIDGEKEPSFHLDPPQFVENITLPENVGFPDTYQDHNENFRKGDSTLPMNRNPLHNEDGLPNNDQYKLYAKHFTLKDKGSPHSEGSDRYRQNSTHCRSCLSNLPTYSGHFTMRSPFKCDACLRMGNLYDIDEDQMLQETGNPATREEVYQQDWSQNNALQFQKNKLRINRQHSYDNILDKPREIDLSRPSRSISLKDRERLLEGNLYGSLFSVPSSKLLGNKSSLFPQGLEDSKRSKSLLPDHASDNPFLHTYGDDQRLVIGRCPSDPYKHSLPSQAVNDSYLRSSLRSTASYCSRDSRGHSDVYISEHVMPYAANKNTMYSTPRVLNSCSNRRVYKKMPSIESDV
T1 sequence (Q00960 27-1482, other chains not shown): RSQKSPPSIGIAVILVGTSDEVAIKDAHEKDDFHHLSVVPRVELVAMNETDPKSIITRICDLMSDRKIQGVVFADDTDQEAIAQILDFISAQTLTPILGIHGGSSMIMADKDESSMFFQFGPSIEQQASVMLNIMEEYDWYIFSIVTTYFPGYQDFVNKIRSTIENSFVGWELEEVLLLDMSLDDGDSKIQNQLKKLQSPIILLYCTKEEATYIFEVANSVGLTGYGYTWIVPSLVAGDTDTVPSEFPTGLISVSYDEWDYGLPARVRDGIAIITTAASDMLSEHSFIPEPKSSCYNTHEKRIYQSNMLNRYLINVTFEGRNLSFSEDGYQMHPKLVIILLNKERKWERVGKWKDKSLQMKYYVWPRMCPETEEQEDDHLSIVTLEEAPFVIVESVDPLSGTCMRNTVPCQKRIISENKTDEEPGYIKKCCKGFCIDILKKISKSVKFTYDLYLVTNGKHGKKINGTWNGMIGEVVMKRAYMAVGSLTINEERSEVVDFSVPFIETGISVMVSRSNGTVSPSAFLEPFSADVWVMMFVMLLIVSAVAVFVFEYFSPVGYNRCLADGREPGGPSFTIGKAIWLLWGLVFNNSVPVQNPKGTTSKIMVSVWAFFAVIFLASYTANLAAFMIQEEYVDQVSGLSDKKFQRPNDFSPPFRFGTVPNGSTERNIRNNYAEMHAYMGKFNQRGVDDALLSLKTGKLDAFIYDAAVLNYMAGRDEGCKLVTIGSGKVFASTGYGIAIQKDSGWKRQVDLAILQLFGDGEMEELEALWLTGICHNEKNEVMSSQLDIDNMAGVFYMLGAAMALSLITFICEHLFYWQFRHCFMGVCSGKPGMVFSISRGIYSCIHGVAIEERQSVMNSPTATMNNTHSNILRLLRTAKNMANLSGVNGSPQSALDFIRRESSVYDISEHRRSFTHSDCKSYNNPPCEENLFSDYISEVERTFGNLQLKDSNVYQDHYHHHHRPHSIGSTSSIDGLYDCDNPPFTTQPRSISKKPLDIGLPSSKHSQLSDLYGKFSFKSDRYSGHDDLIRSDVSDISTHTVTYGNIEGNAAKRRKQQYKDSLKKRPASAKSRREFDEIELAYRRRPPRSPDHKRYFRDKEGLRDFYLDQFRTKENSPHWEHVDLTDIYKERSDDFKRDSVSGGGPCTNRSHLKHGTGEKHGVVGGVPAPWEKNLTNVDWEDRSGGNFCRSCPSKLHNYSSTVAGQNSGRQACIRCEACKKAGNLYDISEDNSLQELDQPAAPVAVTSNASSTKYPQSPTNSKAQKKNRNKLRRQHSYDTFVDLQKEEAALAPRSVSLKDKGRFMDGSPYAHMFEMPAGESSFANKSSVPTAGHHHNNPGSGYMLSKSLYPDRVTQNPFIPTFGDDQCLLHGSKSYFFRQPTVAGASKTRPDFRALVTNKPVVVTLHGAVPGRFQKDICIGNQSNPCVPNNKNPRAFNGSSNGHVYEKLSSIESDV

TAT-EE3: membrane permeable disrupting peptide, sequence YGRKKRRQRRREEDTDSSEEMLALAEE (SEQ ID NO: 4)
NMDAR current amplitude: significantly smaller than that in cells treated with TAT-SC
